Columns and labels:
[1] = molecular target: anti-P-Selectin antibody (IgG4 subclass with mutations S228P/L235E) (human) [IgG part: P01861]; assay: sandwich ELISA assay C; capture on SA plate; tracer FcγRI-Dig; analyte 100 ng/mL
[2] = molecular target: anti-VEGF/ANG2 antibody (IgG1 subclass with mutations P329G/L234A/L235A) (human) [IgG part: P01857]; assay: as above
[3] = molecular target: anti-IGF-1R antibody (IgG1 subclass with mutations I253A/H310A/H435A) (human) [IgG part: P01857]; assay: as above
[4] = molecular target: anti-VEGF/ANG2 antibody (IgG1 subclass with mutations P329G/L234A/L235A/I253A/H310A/H435A) (human) [IgG part: P01857]; assay: as above
[5] = molecular target: anti-IGF-1R antibody (IgG1 subclass with mutations I253A/H310A/H435A) [IgG part: P01857]; assay: sandwich ELISA assay A; capture M1.7.10-Bi; antibody 3 at 2 ng/mL
[6] = molecular target: anti-VEGF/ANG2 antibody (wild-type IgG1 subclass) [IgG part: P01857]; assay: sandwich ELISA assay A; capture M1.7.10-Bi; antibody 5 at 0 ng/mL (blank)
[7] = molecular target: anti-VEGF/ANG2 antibody (IgG1 subclass with mutations P329G/L234A/L235A/I253A/H310A/H435A) [IgG part: P01857]; assay: sandwich ELISA assay A; capture M1.7.10-Bi; antibody 1 at 6 ng/mL
[8] = molecular target: anti-VEGF/ANG2 antibody (wild-type IgG1 subclass) [IgG part: P01857]; assay: sandwich ELISA assay A; capture M1.7.10-Bi; antibody 5 at 100 ng/mL
[9] = molecular target: anti-VEGF/ANG2 antibody (wild-type IgG1 subclass) [IgG part: P01857]; assay: sandwich ELISA assay A; capture M1.7.10-Bi; antibody 5 at 6 ng/mL
[10] = molecular target: anti-P-Selectin antibody (IgG4 subclass with mutations S228P/L235E) (human) [IgG part: P01861]; assay: sandwich ELISA assay B; capture on SA plate; tracer M1.7.10-Dig; analyte 100 ng/mL
[11] = molecular target: anti-VEGF/ANG2 antibody (IgG1 subclass with mutations P329G/L234A/L235A) (human) [IgG part: P01857]; assay: as above
[12] = molecular target: anti-IGF-1R antibody (IgG1 subclass with mutations I253A/H310A/H435A) (human) [IgG part: P01857]; assay: as above
[13] = molecular target: anti-VEGF/ANG2 antibody (IgG1 subclass with mutations P329G/L234A/L235A/I253A/H310A/H435A) (human) [IgG part: P01857]; assay: as above
[14] = molecular target: anti-VEGF/ANG2 antibody (IgG1 subclass with mutations P329G/L234A/L235A/I253A/H310A/H435A) [IgG part: P01857]; assay: sandwich ELISA assay A; capture M1.7.10-Bi; antibody 1 at 3 ng/mL
[15] = molecular target: anti-P-Selectin antibody (IgG4 subclass with mutations S228P/L235E) [IgG part: P01861]; assay: sandwich ELISA assay A; capture M1.7.10-Bi; antibody 4 at 13 ng/mL
[16] = molecular target: anti-VEGF/ANG2 antibody (wild-type IgG1 subclass) [IgG part: P01857]; assay: sandwich ELISA assay A; capture M1.7.10-Bi; antibody 5 at 50 ng/mL
[17] = molecular target: anti-P-Selectin antibody (IgG4 subclass with mutations S228P/L235E) (human) [IgG part: P01861]; assay: sandwich ELISA assay C; capture on SA plate; tracer FcγRI-Dig; analyte 25 ng/mL
[18] = molecular target: anti-VEGF/ANG2 antibody (IgG1 subclass with mutations P329G/L234A/L235A) (human) [IgG part: P01857]; assay: as above
[19] = molecular target: anti-IGF-1R antibody (IgG1 subclass with mutations I253A/H310A/H435A) (human) [IgG part: P01857]; assay: as above
[20] = molecular target: anti-VEGF/ANG2 antibody (IgG1 subclass with mutations P329G/L234A/L235A/I253A/H310A/H435A) (human) [IgG part: P01857]; assay: as above
[21] = molecular target: anti-P-Selectin antibody (IgG4 subclass with mutations S228P/L235E) [IgG part: P01861]; assay: sandwich ELISA assay A; capture M1.7.10-Bi; antibody 4 at 100 ng/mL
[22] = molecular target: anti-P-Selectin antibody (IgG4 subclass with mutations S228P/L235E) (human) [IgG part: P01861]; assay: sandwich ELISA assay B; capture on SA plate; tracer M1.7.10-Dig; analyte 50 ng/mL
[23] = molecular target: anti-VEGF/ANG2 antibody (IgG1 subclass with mutations P329G/L234A/L235A) [IgG part: P01857]; assay: sandwich ELISA assay A; capture M1.7.10-Bi; antibody 2 at 50 ng/mL
[24] = molecular target: anti-VEGF/ANG2 antibody (IgG1 subclass with mutations P329G/L234A/L235A) [IgG part: P01857]; assay: sandwich ELISA assay A; capture M1.7.10-Bi; antibody 2 at 13 ng/mL
[25] = molecular target: anti-P-Selectin antibody (IgG4 subclass with mutations S228P/L235E) [IgG part: P01861]; assay: sandwich ELISA assay A; capture M1.7.10-Bi; antibody 4 at 2 ng/mL

Binder | signal [OD405 nm] [1] | signal [OD405 nm] [2] | signal [OD405 nm] [3] | signal [OD405 nm] [4] | signal [OD405 nm] [5] | signal [OD405 nm] [6] | signal [OD405 nm] [7] | signal [OD405 nm] [8] | signal [OD405 nm] [9] | signal [OD405 nm] [10] | signal [OD405 nm] [11] | signal [OD405 nm] [12] | signal [OD405 nm] [13] | signal [OD405 nm] [14] | signal [OD405 nm] [15] | signal [OD405 nm] [16] | signal [OD405 nm] [17] | signal [OD405 nm] [18] | signal [OD405 nm] [19] | signal [OD405 nm] [20] | further results
anti-AAA variant Fc-region antibody M1.6.22 (antibody, V domains shown) VH: EVQLVESGGDLVKPGGSLKLSCAASGFTFSSYGMSWVRQTPDKRLEWVATISSGGSYIYYPDSVKGRFTISRDNAKNTLYLQMSSLKSEDTAMYYCARLGMITTGYAMDYWGQGTSVTVSS VL: DVLMTQTPLSLPVSLGDQASISCRSSQTIVHSTGHTYLEWFLQKPGQSPKLLIYKVSNRFSGVPDRFSGSGSGTDFTLKISRVEAEDLGVYYCFQGSHVPYTFGGGTKLEIK | 0.069 OD405 nm | 0.076 OD405 nm | 2.1 OD405 nm | 0.079 OD405 nm | 0.199 OD405 nm | 0.042 OD405 nm | 0.057 OD405 nm | 0.056 OD405 nm | 0.046 OD405 nm | 0.051 OD405 nm | 0.21 OD405 nm | 2.9 OD405 nm | 0.052 OD405 nm | 0.057 OD405 nm | 0.05 OD405 nm | 0.045 OD405 nm | 0.06 OD405 nm | 0.063 OD405 nm | 0.401 OD405 nm | 0.081 OD405 nm | signal [OD405 nm] [21]: 0.057 OD405 nm; signal [OD405 nm] [22]: 0.047 OD405 nm; signal [OD405 nm] [23]: 0.065 OD405 nm; signal [OD405 nm] [24]: 0.051 OD405 nm; signal [OD405 nm] [25]: 0.04 OD405 nm
anti-variant (human) Fc-region antibody M1.3.17 (antibody, V domains shown) VH: EVKLLESGGGLVQPGGSLKLSCAASGIDFRRYWMNWVRQAPGKGLEWIGEIDPDSSTINYTPSLKDKFIISRDNAKNTMYLQMRKVRSEDTALYYCARPYDYGAWFAYWGQGTLVTVSA VL: QAVVTQESALTTSPGETVTLTCRSTTGAVTTSNYANWVQEKPDHLFTGLIGGTNKRAPGVPARFSGSLIGDKAALTITGAQTEDEAIYFCALWYSDHWVFGGGTKLTVL | 1.17 OD405 nm | 1.22 OD405 nm | 1.2 OD405 nm | 1.19 OD405 nm | 0.042 OD405 nm | 0.036 OD405 nm | 0.042 OD405 nm | 0.042 OD405 nm | 0.036 OD405 nm | 0.048 OD405 nm | 0.216 OD405 nm | 0.05 OD405 nm | 0.035 OD405 nm | 0.038 OD405 nm | 0.038 OD405 nm | 0.041 OD405 nm | 1.17 OD405 nm | 1.21 OD405 nm | 1.2 OD405 nm | 1.07 OD405 nm | signal [OD405 nm] [21]: 0.04 OD405 nm; signal [OD405 nm] [22]: 0.049 OD405 nm; signal [OD405 nm] [23]: 2.96 OD405 nm; signal [OD405 nm] [24]: 2.7 OD405 nm; signal [OD405 nm] [25]: 0.034 OD405 nm
anti-variant (human) Fc-region antibody M1.7.24 (antibody, V domains shown) VH: EVKLLESGGGLVQPGGSLKLSCAASGFDFSRYWMNWVRQAPGKGLEWIGEITPDSSTINYTPSLKDKFIISRDNAKNTLYLQMIKVRSEDTALYYCVRPYDYGAWFASWGQGTLVTVSA VL: QAVVTQESALTTSPGETVTLTCRSSTGAVTTSNYANWVQEKPDHLFTGLIGGTNKRAPGVPARFSGSLIGDKAALTITGAQTEDEAIYFCALWYSNHWVFGGGTKLTVL | 0.08 OD405 nm | 0.082 OD405 nm | 0.11 OD405 nm | 0.05 OD405 nm | 0.048 OD405 nm | 0.041 OD405 nm | 0.045 OD405 nm | 0.042 OD405 nm | 0.042 OD405 nm | 0.05 OD405 nm | 3.23 OD405 nm | 0.098 OD405 nm | 0.057 OD405 nm | 0.046 OD405 nm | 0.046 OD405 nm | 0.048 OD405 nm | 0.07 OD405 nm | 0.083 OD405 nm | 0.073 OD405 nm | 0.082 OD405 nm | signal [OD405 nm] [21]: 0.046 OD405 nm; signal [OD405 nm] [22]: 0.043 OD405 nm; signal [OD405 nm] [23]: 2.6 OD405 nm; signal [OD405 nm] [24]: 2.52 OD405 nm; signal [OD405 nm] [25]: 0.036 OD405 nm

— patent publication US20180346602A1
